Target: T1, Glu-plasminogen (Calbiochem), P00747
T1 chain: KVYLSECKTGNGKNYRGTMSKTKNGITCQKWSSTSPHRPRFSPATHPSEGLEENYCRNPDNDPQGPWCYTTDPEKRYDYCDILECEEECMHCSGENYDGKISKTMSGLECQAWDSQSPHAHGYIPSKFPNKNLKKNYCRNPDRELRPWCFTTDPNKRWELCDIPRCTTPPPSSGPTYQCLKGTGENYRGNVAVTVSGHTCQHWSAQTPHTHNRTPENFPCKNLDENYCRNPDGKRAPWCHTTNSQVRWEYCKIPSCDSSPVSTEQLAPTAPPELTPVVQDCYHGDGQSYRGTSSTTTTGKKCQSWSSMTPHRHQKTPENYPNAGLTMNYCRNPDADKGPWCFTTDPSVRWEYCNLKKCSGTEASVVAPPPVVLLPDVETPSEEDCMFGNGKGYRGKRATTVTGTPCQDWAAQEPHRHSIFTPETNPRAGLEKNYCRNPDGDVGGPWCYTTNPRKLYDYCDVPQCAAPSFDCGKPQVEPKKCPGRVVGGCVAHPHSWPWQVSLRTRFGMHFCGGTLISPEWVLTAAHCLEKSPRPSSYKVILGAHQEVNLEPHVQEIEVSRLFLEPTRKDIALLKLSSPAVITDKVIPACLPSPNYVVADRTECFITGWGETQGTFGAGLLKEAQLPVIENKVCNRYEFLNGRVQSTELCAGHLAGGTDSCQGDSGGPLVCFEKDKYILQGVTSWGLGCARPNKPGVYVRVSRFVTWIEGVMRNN

B1: tissue type plasminogen activator (t-PA, Calbiochem) (protein)
chain: SYQVICRDEKTQMIYQQHQSWLRPVLRSNRVEYCWCNSGRAQCHSVPVKSCSEPRCFNGGTCQQALYFSDFVCQCPEGFAGKCCEIDTRATCYEDQGISYRGTWSTAESGAECTNWNSSALAQKPYSGRRPDAIRLGLGNHNYCRNPDRDSKPWCYVFKAGKYSSEFCSTPACSEGNSDCYFGNGSAYRGTHSLTESGASCLPWNSMILIGKVYTAQNPSAQALGLGKHNYCRNPDGDAKPWCHVLKNRRLTWEYCDVPSCSTCGLRQYSQPQFRIKGGLFADIASHPWQAAIFAKHRRSPGERFLCGGILISSCWILSAAHCFQERFPPHHLTVILGRTYRVVPGEEEQKFEVEKYIVHKEFDDDTYDNDIALLQLKSDSSRCAQESSVVRTVCLPPADLQLPDWTECELSGYGKHEALSPFYSERLKEAHVRLYPSSRCTSQHLLNRTVTDNMLCAGDTRSGGPQANLHDACQGDSGGPLVCLNDGRMTLVGIISWGLGCGQKDVPGVYTKVTNYLDWIRDNMRP
Q: How did the Km of t-PA-mediated plasminogen conversion in the presence of S100A4 (EGTA) turn out when B1 was run?
A: 0.059 µM

Q: What about the Km of t-PA-mediated plasminogen conversion, basal reaction (EGTA) of the same protein?
A: 0.429 µM

— US20050277575
